For experiment [1], the target named is T1, human IL-13 (source not stated for the assay) (human, UniProt P35225 35-146, limits assumed). Nature of the experiment: cell-based or functional assay.
In experiment [2] the target is T2, native human IL-13 (human, UniProt P35225 35-146, limits assumed).
T2 construct: also called hIL-13
In words: KinExA, equilibrium in solution. (In general: In KinExA the mixture passes briefly over coated beads that capture the unbound partner.)

Another experiment deals with T3, mouse IL-13 (mouse, UniProt P20109 22-131, limits assumed).
T3 construct: also called murine IL-13
T3 sequence (looked up): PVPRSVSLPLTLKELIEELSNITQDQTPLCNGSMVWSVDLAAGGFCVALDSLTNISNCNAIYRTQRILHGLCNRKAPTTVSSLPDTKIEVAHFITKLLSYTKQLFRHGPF
In words: epitope mapping with mouse IL-13 chimeric molecules (ELISA). For orientation: In an ELISA, binding on a coated surface is turned into a signal by an enzyme label.

The target of experiment [3] is T4, Recombinant Human IL-13 (R & D 213-IL-005) (human, UniProt P35225 35-146).
T4 construct: also called IL-13 antigen (R&D Systems)
In words: SPR (Biacore 2000), mAb captured on goat anti-human surface, IL-13 (R&D) injected, 1:1 model. Background: Surface plasmon resonance follows binding to a sensor surface in real time, without labels.

In experiment [4] the target is T5, Human IL-13-Mouse IL-13 Helix C (human IL-13 with mouse Helix C, UniProt P35225 35-146, limits assumed).
T5 construct: Expressed and secreted chimeric protein; also called Mo HelixC
T5 chain: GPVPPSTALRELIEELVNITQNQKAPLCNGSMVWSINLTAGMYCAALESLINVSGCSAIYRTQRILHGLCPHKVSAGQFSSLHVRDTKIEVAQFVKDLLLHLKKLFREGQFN
In words: ELISA on secreted IL-13 chimeric proteins.

Experiment [5] has as its target T6, Human IL-13-Mouse IL-13 Helix B (human IL-13 with mouse Helix B, UniProt P35225 35-146, limits assumed).
T6 construct: Expressed and secreted chimeric protein; also called Mo HelixB
T6 chain: T5 chain with M42G, Y43F, A45V, E48D, I51T, Y60E, R61K, I65M, H67S, L69F
Nature of the experiment: ELISA on secreted IL-13 chimeric proteins; '*' denotes that the binding was weak in the sandwich ELISA.

Experiment [6] has as its target T1, human IL-13 (source not stated for the …). In words: cell-based or functional assay. This is another data set of the same source.
Experiment [7] deals with T2, native human IL-13. In words: KinExA; KD from the equilibrium experiments, printed in the kinetic table (injection method row).
Experiment [8] deals with T1, human IL-13 (source not stated for the …). Nature of the experiment: cell-based or functional assay. The source holds these as a separate data set.
In experiment [9] the target is T2, native human IL-13. Nature of the experiment: KinExA kinetic, injection method; koff calculated from kon and KD.
Experiment [10] concerns the target T7, Human IL-13-rabbit Fc fusion protein (human IL-13 fused to rabbit Fc).
T7 construct: also called IL-13-RbFc; IL-13 Rb Fc
Nature of the experiment: ELISA on plates coated with IL-13RbFc, detection with rabbit anti Hu IgG Fc HRP (paragraph 267 to paragraph 269).

The target in experiment [11] is T2, native human IL-13. Nature of the experiment: KinExA kinetic, injection method.
The next experiment has as its target marmoset IL-13 (marmoset, UniProt A0A8I3WT33 35-145). Nature of the experiment: KinExA, n-curve analysis.
In the next experiment the target is T8, native macaque IL-13 (macaque monkey).
T8 construct: also called macaque monkey IL-13
In words: KinExA, equilibrium in solution.

Experiment [12] concerns the target T6, Human IL-13-Mouse IL-13 Helix B. Nature of the experiment: ELISA on secreted IL-13 chimeric proteins.

Substitutions are numbered along the chain they refer to. Bounds are passed on as bounds.

T4 sequence (P35225 35-146 limits assumed): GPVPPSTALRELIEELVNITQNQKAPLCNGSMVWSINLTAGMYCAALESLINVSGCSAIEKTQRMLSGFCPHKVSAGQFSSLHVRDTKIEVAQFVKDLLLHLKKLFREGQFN
Sequence of marmoset IL-13 (A0A8I3WT33 entry or part of it): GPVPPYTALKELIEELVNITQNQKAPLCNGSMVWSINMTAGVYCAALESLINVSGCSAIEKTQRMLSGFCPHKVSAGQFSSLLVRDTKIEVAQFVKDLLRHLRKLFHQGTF
T8 sequence (Q864V6 19-132): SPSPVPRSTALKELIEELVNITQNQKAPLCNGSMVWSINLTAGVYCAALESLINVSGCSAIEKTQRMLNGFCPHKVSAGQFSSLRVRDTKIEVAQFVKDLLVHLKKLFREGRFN
T7 sequence (chain, as listed by the source limits assumed): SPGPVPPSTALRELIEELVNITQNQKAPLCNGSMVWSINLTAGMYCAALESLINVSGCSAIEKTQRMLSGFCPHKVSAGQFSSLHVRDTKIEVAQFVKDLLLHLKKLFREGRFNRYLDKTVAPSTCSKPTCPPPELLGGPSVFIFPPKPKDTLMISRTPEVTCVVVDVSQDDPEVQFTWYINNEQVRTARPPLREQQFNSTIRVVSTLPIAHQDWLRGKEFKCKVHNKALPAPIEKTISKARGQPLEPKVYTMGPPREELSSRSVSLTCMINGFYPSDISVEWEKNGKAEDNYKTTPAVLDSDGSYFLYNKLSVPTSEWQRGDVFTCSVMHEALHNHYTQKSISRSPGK

B1: mAb 157 (antibody, V domains shown)
VH: EVQLVESGGGLVKPGGSLRLSCAASGFTFSSYSMNWVRQAPGKGLEWVSYISTSYNYIYYADSVKGRFTISRDNAKNSLYLQMNSLRAEDTAVYYCARDQVGATLDAFDIWGQGTMVTVSS
VL: DIQMTQSPSSLSASVGDRVTITCRASQGIGDDLGWYQQKPGKAPKRLIYAASSLQSGVPSRFSGSGSGTEFTLTISSLQPEDFATYYCLQHNSYPFTFGPGTRVDIK
B1: in [1], the “IC50, IL-13 induced eotaxin release, Average” value (shortened to “IC50 … Average”) stood at 0.258 nM; the “IC50, IL-13 induced eotaxin release, n = 1” value (“IC50 … n = 1” below) was determined as 0.26 nM; the “IC50, IL-13 induced eotaxin release, n = 2” value (“IC50 … n = 2” below) is 0.207 nM; the “IC50, IL-13 induced eotaxin release, n = 3” value (from here on “IC50 … n = 3”) amounted to 0.306 nM.

B2: mAb 264 (antibody, V domains shown)
VH: B1 VH with Y55N, N56S
VL: B1 VL with I21F, G28D, G30T, R103K, K107R
Turning to B2, in experiment [1], the “IC50 … Average” value is 0.297 nM; the “IC50 … n = 1” value is 0.293 nM; the “IC50 … n = 2” value was found to be 0.313 nM; the “IC50 … n = 3” value amounted to 0.284 nM.

B3: mAb 183 (antibody, V domains shown)
VH: B1 VH with T53S, A61G
VL: B1 VL with R103K
Turning to B3, in [1], the “IC50 … Average” value was 1.44 nM; the “IC50 … n = 1” value was 1.04 nM; the “IC50 … n = 2” value came to 1.84 nM.

B4: mAb 243 (antibody, V domains shown)
VH: B1 VH with Y55N, N56S
VL: B1 VL with I21F, G28D, G30T, R103K, K107R
Take B4: in experiment [1], the “IC50 … Average” value was 0.253 nM and the “IC50 … n = 1” value is 0.253 nM.

B5: mAb 176 (antibody, V domains shown)
VH: B1 VH with Y55N, N56S
VL: B1 VL with I21F, G28D, G30T, S60P, R103K, K107R
Turning to B5, in experiment [1], the “IC50 … Average” value was 0.233 nM and the “IC50 … n = 1” value amounted to 0.233 nM.

B6: mAb 356 (antibody, V domains shown)
VH: EVQLVESGGGLVKPGGSLRLSCAASGFTFSDYNMHWVRQAPGKGLEWVSSISYSSTYIYYADSVRGRFTISRDNAKNSLYLQMNSLRAEDTAVFYCAREDYYYYGLDVWGQGTTVTVSS
VL: B1 VL with G28D, G30R, D31N, A50D, T85I, F96W, P100Q, R103K, D105E
Take B6: in experiment [1], the “IC50 … Average” value is 1 nM; the “IC50 … n = 1” value was 1.09 nM; the “IC50 … n = 2” value was 0.913 nM.

B7: mAb 11.18 (antibody, V domains shown)
VH: QVQLVESGGGVVQPGRSLRLSCVASGFTFSSYDMHWVRQAPGKGLEWVAVIWYDGSNKYYADSVQGRFTISRDNSKNTLYLQMNSLRAEDTAVYYCTSEDSSGWYDGWFDPWGQGTLVTVSS
VL: DIQMTQSPSSLSASVGDRVTITCRASQGISNYLAWYQQKPGKVPKVLIYAASTLQSGVPSRFSGSGSGTDFTLTISSLQPEDVATYYCQKYNSAPFTFGPGTKVDIK
For B7, in experiment [1], the “IC50 … Average” value came to 0.245 nM; the “IC50 … n = 1” value is 0.213 nM; the “IC50 … n = 2” value is 0.304 nM; the “IC50 … n = 3” value is 0.217 nM.

B8: mAb 713 (antibody, V domains shown)
VH: EVQLLESGGGLVQPGGSLRLSCAASGFTFSSYAMSWVRQAPGKGLEWVSAFSGSGGSTYYADSVKGRFTISRDNSKNTLYLQMNSLRAEDTAVYYCVQDGLGPYFYNYGMDVWGQGTTVTVSS
VL: SYELTQPPSVSVSPGQTASITCSGDKLGDKYTCWFQQKPGQSPVLVIYHDSKRPSGIPERFSGSNSGDTATLTISGTQAMDEADYYCQAWDSSTYVFGTGTKVTVLG
As to B8, in experiment [1], the “IC50 … Average” value was 0.021 nM; the “IC50 … n = 1” value is 0.021 nM; the “IC50 … n = 2” value is 0.021 nM; the “IC50 … n = 3” value was found to be 0.019 nM. The molecule also came in with a Kd with native human IL-13 [2] of 0.0036 nM. Also, in the experiment with mouse IL-13, the binding result is listed as “no binding”. Moreover, in [3], the Kd was 0.012 nM, the dissociation rate constant (koff) is 3.4e-05 s⁻¹ and the kon was determined as 2.9e+06 M⁻¹ s⁻¹. Also, the binding result in experiment [4] is recorded as “no binding”. Also, in experiment [5], the binding result is “binds”.

B9: mAb 731 (antibody, V domains shown)
VH: B8 VH
VL: B8 VL with T32A
notes: also called sc731
With B9, the “IC50, eotaxin production by HDFa cells, 300 pM IL-13” value in [6] is 28 pM. Also, in experiment [6], the “IC50, eotaxin production by HDFa cells, 600 pM IL-13” value came out at 56 pM. For the same molecule, the “IC50 … Average” value in experiment [1] came out at 0.016 nM. The “IC50 … n = 1” value in experiment [1] amounted to 0.011 nM. For the same molecule, in experiment [1], the “IC50 … n = 2” value was 0.019 nM. Also, the “IC50 … n = 3” value in experiment [1] was 0.017 nM. Besides, the Kd in the experiment with native human IL-13 [2] was 0.0089 nM; in experiment [3], 0.009 nM; with native human IL-13 [7], 0.0089 nM; with marmoset IL-13, less than 0.007 nM; in the experiment with native macaque IL-13, 1.6 nM. For the same molecule, the binding result is “no binding” with mouse IL-13, “no binding” in experiment [4], “binds” in experiment [5] and “binds” in experiment [10]. The koff was 3.5e-05 s⁻¹ in experiment [3] and 4.2e-05 s⁻¹ with native human IL-13 [9]. Moreover, the results for the kon (in [3]; with native human IL-13 [11]) were 3.9e+06 M⁻¹ s⁻¹ and 4.7e+06 M⁻¹ s⁻¹, respectively. Also, the “EC50, HDLM-2 proliferation assay (3H-thymidine)” value in [8] was determined as 0.18 nM. In addition, the “EC50, L-1236 proliferation assay (3H-thymidine)” value in experiment [8] is 0.0052 nM. In addition, in [8], the “IC50, IL-13-induced CD23 expression on whole blood B cells (FACS)” value was determined as 0.87 nM.

B10: mAb 602 (antibody, V domains shown)
VH: EVQLVESGGGLVKPGGSLRLSCAASGFTFSNAWMSWVRQAPGKGLEWVGRIRSKIDGGTINYAAPVKGRFTISRDDSKNTLYLQMNSLKTEDTAVYYCATDQVGAYYGDYYGMDVWGQGTTVTVSS
VL: SYELTQPPSVSVSPGQTARITCSGDALPEKYAYWYQQKSGQAPVLVIYEDTKRPSGIPERFSGSSSGTMATLTISGAQVEDEADYYCYSTDSSGNHGVFGGGTKLTVLG
Regarding B10, in experiment [1], the “IC50 … Average” value amounted to 0.066 nM; the “IC50 … n = 1” value stood at 0.08 nM; the “IC50 … n = 2” value came to 0.053 nM. Moreover, the binding result in the experiment with mouse IL-13 is recorded as “no binding”. Further, in experiment [3], the dissociation constant (Kd) is 0.172 nM, the off-rate (koff) turned out to be 0.00051 s⁻¹ and the on-rate constant (kon) turned out to be 3e+06 M⁻¹ s⁻¹. In addition, the binding result in [4] is reported as “binds”. Further, the binding result in [12] is listed as “binds”.

B11: mAb 643 (antibody, V domains shown)
VH: B10 VH with K54E, I60T, K89R
VL: B10 VL with T51S, Y88H
With B11, in experiment [1], the “IC50 … Average” value was found to be 0.035 nM; the “IC50 … n = 1” value worked out at 0.044 nM; the “IC50 … n = 2” value was 0.028 nM; the “IC50 … n = 3” value was found to be 0.033 nM. The molecule further registered a dissociation constant Kd with native human IL-13 [2] of 0.013 nM. Moreover, in the experiment with mouse IL-13, the binding result was “no binding”. Also, in experiment [3], the Kd stood at 0.066 nM, the koff is 0.00029 s⁻¹ and the on-rate constant (kon) came to 4.4e+06 M⁻¹ s⁻¹. In [4], the binding result was “binds”. Besides, the binding result in experiment [12] is reported as “binds”.

For orientation: Kd means the constant that tells how readily two partners part at equilibrium. For orientation: koff means a measure of how fast the partners let go of each other. One may read the kon as a measure of how fast the partners come together.
